From publication PMC2766623, “The Vitamin B1 Metabolism of Staphylococcus aureus Is Controlled at Enzymatic and Transcriptional Levels” (PLoS ONE, 2009)

Tests used:
[1] = target: S. aureus 4-amino-5-hydroxymethyl-2-methylpyrimidine (HMP) kinase (SaThiD) (Staphylococcus aureus ATCC25923); experiment: SEC-MALS; Superdex 200 10/30 size exclusion column followed by static light scattering (miniDAWN Tristar); 100 mM Tris-HCl buffer, pH 8, 150 mM NaCl; affinity purified proteins
[2] = target: T1, SaGTPase (Staphylococcus aureus, UniProt P67682); experiment: phosphate release, malachite green; type: biochemical; settings: 1 mM substrate, 1 mM MgCl2, 100 mM MOPS pH 7.5, 37°C
T1 construct: gene rsgA; monomer; gtpase-epi-tpk operon
T1 sequence (P67682 1-291): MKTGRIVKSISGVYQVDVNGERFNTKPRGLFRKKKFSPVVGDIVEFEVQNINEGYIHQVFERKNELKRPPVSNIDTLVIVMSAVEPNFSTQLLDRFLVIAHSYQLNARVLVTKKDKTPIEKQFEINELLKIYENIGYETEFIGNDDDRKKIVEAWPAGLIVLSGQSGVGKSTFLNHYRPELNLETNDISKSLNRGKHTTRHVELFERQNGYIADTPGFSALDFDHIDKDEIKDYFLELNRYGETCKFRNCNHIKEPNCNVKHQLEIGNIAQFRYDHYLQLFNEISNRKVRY

[3] = target: S. aureus thiaminase type II (SaTenA) (Staphylococcus aureus ATCC25923); experiment: SEC-MALS; Superdex 200 10/30 size exclusion column followed by static light scattering (miniDAWN Tristar); 100 mM Tris-HCl buffer, pH 8, 150 mM NaCl; affinity purified proteins
[4] = target: S. aureus 5-(2-hydroxyethyl)-4-methylthiazole (THZ) kinase (SaThiM) (Staphylococcus aureus ATCC25923); experiment: as above
[5] = substrate: Cc1ncc(CO)c(N)n1; experiment: radiometric [gamma-33P]-ATP phosphorylation, TLC, Lineweaver-Burk; type: biochemical, Staphylococcus aureus; settings: 1 mM ATP, 2 mM MgCl2, 100 mM potassium phosphate pH 7.5, 37°C
Excerpt: radiometric [gamma-33P]-ATP phosphorylation, TLC, Lineweaver-Burk on SaThiD

[6] = substrate: Cc1ncc(C[n+]2csc(CCO)c2C)c(N)n1; experiment: thiamine hydrolysis, products HMP/THZ measured by radiometric kinase assay, TLC, Lineweaver-Burk; type: biochemical, Staphylococcus aureus; settings: 100 mM Tris-HCl pH 7.5, 37°C, no nucleophile needed
Excerpt: thiamine hydrolysis, products HMP/THZ measured by radiometric kinase assay, TLC, Lineweaver-Burk on SaTenA

[7] = substrate: Cc1ncc(COP(=O)(O)OP(=O)(O)O)c(N)n1; experiment: purified protein; type: biochemical, Staphylococcus aureus; settings: co-substrate THZ-[33P] (THZ phosphate), 37°C
[8] = substrate: Cc1ncc(C[n+]2csc(CCO)c2C)c(N)n1; experiment: purified protein; type: biochemical, Staphylococcus aureus; settings: 2 mM ATP, 4 mM MnCl2, 100 mM Tris-HCl pH 8.5, 37°C

For “S. aureus 4-amino-5-hydroxymethyl-2-methylpyrimidine (HMP) kinase (SaThiD) (enzyme)”, the stoichiometry N [1] was 2.

With `Nc1nc2c(ncn2[C@@H]2O[C@H](COP(=O)(O)OP(=O)(O)OP(=O)(O)O)[C@@H](O)[C@H]2O)c(=O)[nH]1` [GTP] the “phosphate release, malachite green” value [2] was “the S. aureus GTPase is not restricted to GTP and exhibits a broad substrate spectrum”.

“S. aureus thiaminase type II (SaTenA) (enzyme)” showed a stoichiometry N [3] of 3.

For “S. aureus 5-(2-hydroxyethyl)-4-methylthiazole (THZ) kinase (SaThiM) (enzyme)”, the stoichiometry N [4] was 2.

B1: SaThiD (Staphylococcus aureus subsp. aureus N315) (protein)
chain: MIKPKIALTIAGTDPTGGAGVMADLKSFHSCGVYGMGVVTSIVAQNTLGVQHIHNLNHQWVDEQLDSVFNDTLPHAIKTGMIATADTMETIRHYLMQHESIPYVIDPVMLAKSGDSLMDNDTKQNLQHTLLPLADVVTPNLPEAEEITGLTIDSEEKIMQAGRIFINEIGSKGIIIKGGHSNDTDIAKDYLFTNEGVQTFENERFKTKHTHGTGCTFSAVITAELAKGRPLFEAVHKAKKFISMSIQYTPEIGRGRGPVNHFAYLKKEGLDDELSK
notes: dimer; 831 bp ORF in tenA-thiM-thiD-thiE operon
Molecule B1 has a Km [5] of 635 ± 20 µM and a kcat [5] of 0.012 ± 0.00083 s⁻¹.

B2: SaTenA (Staphylococcus aureus subsp. aureus NCTC 8325) (protein)
chain: MEFSQKLYQAAKPIINDIYEDDFIQKMLSGDIGADALRHYLKADAAYLKEFTNLYALLIPKMNSMNDVKFLVEQIEFMVEGEVLAHDILAQIVGESYEEIIKTKVWPPSGDHYIKHMYFQAHSRENAIYTIAAMAPCPYIYAELAKRSQSDHKLNREKDTAKWFDFYSTEMDDIINVFEAIMNKLAESMSDKELEQVKQVFLESCIHERRFFNMAMTLEQWEFGGKVND
notes: trimer by SLS
Molecule B2 has a Km [6] of 256 ± 44 µM and a kcat [6] of 0.0017 ± 0.00033 s⁻¹.

B3: SaThiE (Staphylococcus aureus subsp. aureus NCTC 8325) (protein)
chain: MFNQSYLNVYFICGTSDVPSHRTIHEVLEAALKAGITLFQFREKGESALKGNDKLVLAKELQHLCHQYDVPFIVNDDVSLAKEINADGIHVGQDDAKVKEIAQYFTDKIIGLSISDLDEYAKSDLTHVDYIGVGPIYPTPSKHDAHIPVGPEMIATFKEMNPQLPIVAIGGINTNNVAPIVEAGANGISVISAISKSENIEKTVNRFKDFFNN
notes: low yield, three bands on SDS-PAGE
Work on B3 yielded a Km [7] of 145 ± 36 µM.

B4: SaTPK (Staphylococcus aureus subsp. aureus NCTC 8325) (protein)
chain: MHINLLCSDRHLPQDIWAKSNEGKWGGVDRGALILLKHQIIPFFSVGDFDSVSKEERQLLTEQLQIKPVQAEKADTDLALAVDKAVALGFDSITIYGATGGRLDHFFGAIQLLLKKAYYKHDVHIEVIDQQNKIELLPKGQHTVEKDKSYPYISFIPMTDDVELSLAGFKYNLARQMLNIGSTLTISNEIESLQAKVTVHDGLILQIRSTDLN
notes: monomer; gtpase-epi-tpk operon
In the case of B4, the Km [8] is reported as 394 ± 74 µM and the kcat [8] is reported as 0.0083 ± 0.0012 s⁻¹.
